# Experimental data taken from PMC9836055.
# Test system: CC(=O)Oc1ccc([N+](=O)[O-])cc1
# Assay: purified protein
# Conditions: PBS, 37 °C, 0.25 mg/mL enzyme
substance,measurement,value
Lsa45 (Leptospiral surface adhesin of 45 kDa) (Leptospira interrogans serovar Copenhageni str. Fiocruz L1-130),Km,849.3 ± 15.30 µM
same,Vmax,219 µM/min
